Test results from patent US20240400703A1 (Genmab, published 2024).
Values joined by “and” are separate entries in the source; they are usually repeats but may differ in a detail not shown here. Equal values may be shown once.

T1: human OX40 with mouse CRD1 (human with mouse CRD1, UniProt P43489 29-277)
T1 construct: on ExpiCHO-S cells; also called OX40-CRD1mm; Shuffle 1
T1 chain: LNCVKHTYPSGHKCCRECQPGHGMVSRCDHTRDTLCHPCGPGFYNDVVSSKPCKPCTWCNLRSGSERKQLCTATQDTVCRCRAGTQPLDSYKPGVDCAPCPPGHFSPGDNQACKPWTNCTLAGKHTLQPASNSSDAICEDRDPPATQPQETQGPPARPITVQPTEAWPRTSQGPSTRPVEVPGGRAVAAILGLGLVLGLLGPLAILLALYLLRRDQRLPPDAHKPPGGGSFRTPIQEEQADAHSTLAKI

T2: human OX40 expressed on cells (human, UniProt P43489 29-277)
T2 construct: also called CD134; TNFRSF4
T2 sequence: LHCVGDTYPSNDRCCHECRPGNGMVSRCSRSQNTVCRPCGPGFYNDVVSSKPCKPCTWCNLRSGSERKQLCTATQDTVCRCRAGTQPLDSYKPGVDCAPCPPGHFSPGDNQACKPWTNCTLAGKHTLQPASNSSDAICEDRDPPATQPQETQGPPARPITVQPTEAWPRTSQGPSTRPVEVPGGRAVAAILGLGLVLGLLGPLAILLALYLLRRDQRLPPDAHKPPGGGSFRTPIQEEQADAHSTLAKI

T3: His-tagged human recombinant FcγRIIb (Sino Biological, cat. no. 10259-H27H-B) (human, UniProt P31994 43-217)
T3 construct: also called FcγRII2b [sic]
T3 sequence (looked up): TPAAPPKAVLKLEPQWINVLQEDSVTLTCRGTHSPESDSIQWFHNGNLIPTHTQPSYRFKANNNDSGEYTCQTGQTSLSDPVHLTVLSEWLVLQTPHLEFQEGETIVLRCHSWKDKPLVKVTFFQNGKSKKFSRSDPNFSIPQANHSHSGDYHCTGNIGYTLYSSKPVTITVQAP

T4: His-tagged human recombinant FcγRIIa 167-His (Sino Biological, cat. no. 10374-H08H1) (human, UniProt P12318 34-218)
T4 construct: also called FcγRIIa[H]
T4 sequence (looked up): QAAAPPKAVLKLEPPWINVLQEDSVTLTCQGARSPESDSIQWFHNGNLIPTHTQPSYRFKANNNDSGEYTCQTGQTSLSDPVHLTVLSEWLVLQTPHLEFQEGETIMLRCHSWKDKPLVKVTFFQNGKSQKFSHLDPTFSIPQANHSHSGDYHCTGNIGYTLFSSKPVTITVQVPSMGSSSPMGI


Assays:
[1] = molecular target: T5, human FcγRIa expressed on cells (human, UniProt P12314 16-374); assay: flow cytometry, FcγRIa-transfected ExpiCHO-S cells, gMFI (PE)
T5 construct: whole, on cells; also called FcγR1a; CD64
Protocol: Data were analyzed using FlowJo software and were visualized using GraphPad Prism.

[2] = molecular target: T1, human OX40 with mouse CRD1; assay: flow cytometry, transfected ExpiCHO-S cells, MFI at 5 µg/mL as % of IgG1-CD134-A4453
Protocol: The four shuffle constructs, as well as wild-type human and mouse OX40 were transiently expressed on ExpiCHO-S cells using the ExpiFectamine™ CHO Transfection Kit (ThermoFisher, cat. no. A29131), according to the manufacturer's protocol. […] Next, cells were washed twice in FACS buffer 1, were resuspended in a 30 μL solution of viability marker ToPro-3 (Invitrogen, cat. no. T3605, diluted 1:10,000) in FACS buffer 1 supplemented with 2 mM EDTA, and were analyzed on an iQue Screener Plus (Intellicyt Corporation, USA). Data were analyzed using FlowJo software and visualized using GraphPad Prism.

[3] = molecular target: T2, human OX40 expressed on cells; assay: flow cytometry, activated human CD4+ T cells, with 2 µg/mL sOX40L, n=3
Protocol: Stimulated PBMCs were pelleted, resuspended in FACS buffer 2 (DPBS with 2% heat-inactivated FBS [Sigma-Aldrich, cat. no. F7524] and 2 mM EDTA [Sigma-Aldrich, cat. no. 03690]), and seeded (100,000 cells/well) in round-bottom 96-well plates (VWR International GmbH, cat. no. 734-197). […] Next, cells were washed twice in FACS buffer, and incubated with 30 μL of the antibody panel described in Table 11 diluted in FACS buffer 2 containing 1:1,500 Fixable Viability Stain eFluor 780 at 4° C. for 20 min, protected from light. The cells were subsequently washed twice with 120-150 μL FACS buffer 2 and measured on a BD FACSCelesta flow cytometer using a BD High Throughput sampler and subsequent analysis was done using FlowJo software.

[4] = molecular target: T6, His-tagged human recombinant FcγRIIIa 176-Phe (Sino Biological, cat. no. 10389-H27H) (human, UniProt P08637 17-208); assay: SPR, His-tagged FcγR captured on anti-His chip, antibody injected
T6 construct: also called FcγRIIIa[F]
Protocol: (§1) Biacore Series S Sensor Chips CM5 (Cytiva, cat. no. 29104988) were covalently coated with anti-His antibody using amine-coupling and His capture kits (Cytiva, cat. no. BR100050 and cat. no. 29234602) according to the manufacturer's instructions. […] After three start-up cycles of HBS-EP+ buffer, antibody samples were injected for 12 cycles per sample to generate binding curves using antibody concentration ranges of 0 to 3,000 nM for FcγRIa and 0 to 10,000 nM for the other FcγRs.
(§2) Dissociation from the anti-His-coated surface was performed by regeneration of the surface using 10 mM Glycine-HCl pH 1.5 (Cytiva, cat. no. BR100354).

[5] = molecular target: T3, His-tagged human recombinant FcγRIIb …; assay: as above
Protocol: as §1, §2

[6] = molecular target: T4, His-tagged human recombinant FcγRIIa …; assay: as above
Protocol: as §1, §2

[7] = molecular target: His-tagged human recombinant FcγRIa (Sino Biological, cat. no. 10256-H08S-B) (human, UniProt P12314 16-288); assay: as above
Protocol: as §1, §2

[8] = molecular target: T7, His-tagged human recombinant FcγRIIIa 176-Val (Sino Biological, cat. no. 10389-H27H1-B) (human, UniProt P08637 17-208); assay: as above
T7 construct: also called FcγRIIIa[V]
Protocol: as §1, §2

[9] = molecular target: T2, human OX40 expressed on cells; assay: flow cytometry, human T cells activated 72 h with anti-CD3/CD28 beads

T7 sequence (P08637 17-208 F176V limits assumed): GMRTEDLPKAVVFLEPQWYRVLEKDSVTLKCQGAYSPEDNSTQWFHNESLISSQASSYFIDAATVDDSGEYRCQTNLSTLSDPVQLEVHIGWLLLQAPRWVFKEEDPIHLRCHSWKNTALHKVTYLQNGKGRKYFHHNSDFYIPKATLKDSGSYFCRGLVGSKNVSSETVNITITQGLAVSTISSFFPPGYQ
Chain of His-tagged human recombinant FcγRIa (Sino Biological, cat. no. 10256-H08S-B) (P12314 16-288 limits assumed, stated change not applied): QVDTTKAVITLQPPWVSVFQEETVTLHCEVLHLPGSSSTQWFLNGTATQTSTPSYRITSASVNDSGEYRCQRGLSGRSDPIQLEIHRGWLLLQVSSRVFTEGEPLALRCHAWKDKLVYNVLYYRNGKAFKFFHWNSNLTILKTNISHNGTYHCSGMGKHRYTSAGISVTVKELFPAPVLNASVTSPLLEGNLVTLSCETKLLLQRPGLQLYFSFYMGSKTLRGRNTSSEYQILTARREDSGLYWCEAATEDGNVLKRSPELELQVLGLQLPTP
T5 sequence (P12314 16-374): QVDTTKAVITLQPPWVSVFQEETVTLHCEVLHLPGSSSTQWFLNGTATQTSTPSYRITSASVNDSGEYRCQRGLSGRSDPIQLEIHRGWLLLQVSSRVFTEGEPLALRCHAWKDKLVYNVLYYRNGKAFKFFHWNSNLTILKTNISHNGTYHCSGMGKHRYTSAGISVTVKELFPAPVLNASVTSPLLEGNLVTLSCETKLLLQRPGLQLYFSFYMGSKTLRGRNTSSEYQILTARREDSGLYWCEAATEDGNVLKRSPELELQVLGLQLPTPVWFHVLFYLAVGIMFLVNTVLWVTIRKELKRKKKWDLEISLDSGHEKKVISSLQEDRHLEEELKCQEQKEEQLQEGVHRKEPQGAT
T6 sequence (P08637 17-208 limits assumed): as the sequence (P08637 17-208 F176V limits assumed) above, with V160F counted along it

binding result [1] | binding result [2] | EC50 [3] | binding result [4] | binding result [5] | binding result [6] | binding result [7] | binding result [8] | EC50 (read off the curve) [9] | Binder
binds | – | – | – | – | – | – | – | – | IgG1-CD134-003 (antibody, rabbit-human chimeric IgG1, wild-type Fc; also called parental chimeric antibody) heavy: not shown light: AAVLTQTPSPVSAAVGGTVTIKCQSSQIVVNNNFLSWYQQKPGQPPKLLIYDASNLASGVPDRFSGSGSGTQFTLTISGVQSDDAATYYCLGGYDDDAENAFGGGTEVVVQRTVAAPSVFIFPPSDEQLKSGTASVVCLLNNFYPREAKVQWKVDNALQSGNSQESVTEQDSKDSTYSLSSTLTLSKADYEKHKVYACEVTHQGLSSPVTKSFNRGEC
– | no binding (tested: 5 µg/mL) | 0.054 µg/mL and 0.359 nM | no binding (tested: about 4,000 nM) | no binding (tested: about 5,000 nM) | no binding (tested: 10,000 nM) | binds | no binding (tested: 10,000 nM) | ~0.02 µg/mL | IgG1-CD134-003-HC6LC2-P329R-E345R (antibody, humanized; human IgG1 with P329R and E345R (Eu numbering), kappa; also called IgG1-CD134-003-HC6LC2-RR) heavy: not shown light: AAVLTQSPSSLSASVGDRVTITCQSSQIVVNNNFLSWYQQKPGKAPKLLIYDASNLASGVPDRFSGSGSGTDFTFTISSLQPEDIATYYCLGGYDDDAENAFGGGTKVEIKRTVAAPSVFIFPPSDEQLKSGTASVVCLLNNFYPREAKVQWKVDNALQSGNSQESVTEQDSKDSTYSLSSTLTLSKADYEKHKVYACEVTHQGLSSPVTKSFNRGEC
